Measured values taken from publication PMC11373624, “Development and preclinical characterization of a novel radiotheranostic EphA2-targeting bicyclic peptide” (Theranostics, 2024).
Numbered stars: 1 amine (or outer) side, 2 acyl side, 3 side chain; on linkers, the order of the positions; unused ones are H or OH. Bridge positions count the residues as written; N and C are the ends. Square brackets hold non-standard residues; d marks the D form. Peptide text beside a SMILES is read from it. * marks the point of attachment. DOTA = O=C(O)CN1CCN(CC(=O)O)CCN(CC(=O)*)CCN(CC(=O)O)CC1; TATA = O=C(CC[*:1])N1CN(C(=O)CC[*:2])CN(C(=O)CC[*:3])C1; Hyp = O=C(O)[C@@H]1C[C@@H](O)CN1; hArg = N=C(N)NCCCC[C@H](N)C(=O)O; Cba = N[C@@H](CC1CCC1)C(=O)O; βAla = NCCC(=O)O; Sar = CNCC(=O)O

Key:
in vitro [1] = format: in vitro ADME; conditions: human, plasma, plasma protein binding
Description: To determine binding to plasma proteins, BCY18469 was labeled with ^68Ga (apparent molar activity 1 GBq/µmol). Thereafter, 10 µL of the labeling mixture were added to 100 µL of mouse or human plasma (mouse: BioIVT, United Kingdom, human: Sigma Aldrich, Germany). The mixture was left for 15 min at room temperature. Afterwards, the plasma was loaded into an ultrafiltration device (Amicon Ultra 0.5ml - 30 kDa, Merck, Germany) and centrifuged at 14,000 rpm for 30 min at r.t. The filtrate and the membrane were measured in a gamma counter (Wizard2, Perkin Elmer, Germany). The amount of plasma-bound compound was calculated based on the counts in the […] relative to the total counts (filtrate + membrane).

MCF-7 tumor xenograft = conditions: mouse, in vivo
Description: (§1) PET/MR imaging was performed in 8-week-old female BALC/c nu/nu mice (Charles River, Germany) which were subcutaneously inoculated on the right upper flank with 10^6 cells (1:1 in PBS:Matrigel). Tumor growth was monitored, and once size was approx. 300-500 mm^3, 150 pmol of [^68Ga]Ga-BCY18469 (4 - 9 MBq) was injected intravenously via tail vein with subsequent imaging performed under isoflurane anesthesia. For the PET imaging experiments with blocking, an excess (15 nmol) of non-radiolabeled BCY18469 was injected 5 mins before the injection of 300 pmol (4 MBq) of the ^68Ga-labeled compound. PET imaging consisted of a dynamic scan from 0 to 60 min p.i. (30 frames), followed by non-triggered localizer and a 3-step whole body T1-weighed 3D MR-scan (PET/MR 3T, Bruker BioSpin, Germany). Additionally, a 2 h p.i. static image (10 min scan) was recorded, followed by the same MR scan protocol. Data was obtained via ParaVision 3.0 and reconstructed using a Maximum-Likelihood Expectation-Maximization (MLEM) algorithm at 0.5 mm for 18 iterations. Reconstructed data was analyzed with PMOD 3.7.

in vitro [2] = format: in vitro ADME; conditions: plasma
Description: Determination of stability in plasma was performed with the ^177Lu-labeled peptide. 10 µL of the labeled compound were added into human or mouse plasma (mouse: BioIVT, United Kingdom, human: Sigma Aldrich, Germany) and incubated at 37 °C. Aliquots were taken at different time points during incubation (1, 6, 24, 48 and 72 h) to which acetonitrile (30 μL) was added in order to precipitate plasma proteins. After centrifugation at 13,000 rpm for 5 min at r.t. the supernatant was taken and analyzed via HPLC.

HT1080 cells = assay: Cell surface binding and internalization assay; format: cell-based, human; conditions: listed as 68Ga-BCY18469
Description: To assess internalization and specificity, HT1080 cells (10^5 cells/well) were seeded in a 24-well plate coated with poly-L-lysine one day before the experiment. […] To determine specific uptake, 'cold' (non-radiolabeled) BCY18469 was added to half of the wells at an excess concentration of 10 µM/well or, alternatively, the cells were kept at 4 °C during the experiment. Following the incubation, the cells were thoroughly rinsed with cold PBS (3 x 1 mL). Subsequently, surface bound radioactivity was removed by washing with 50 mM glycine (pH 2.8, 2 x 500 µL). Finally, the internalized fraction was determined by lysing the cells with 0.5 M NaOH (500 µL). All fractions were collected and measured using a gamma counter (Perkin Elmer Wizard2, Germany). All counts were standardized to the initial activity, and specific surface binding as well as specific internalization were calculated by subtracting the non-specific binding values obtained from the wells treated with an excess of 'cold' compound. Results were calculated and expressed as %AA/10^5 cells (% applied activity/10^5 cells).

in vivo [3] = conditions: female, BALC/c nu/nu, mouse, iv, 150 pmol, total radioactivity
Description: as §1

in vivo [4] = conditions: male, athymic nude, mouse
Description: (§2) SPECT/CT imaging was performed in three 5- to 8-week-old male athymic nude mice (Janvier Labs, UK) which were subcutaneously inoculated on the right upper flank with 5 x 10^6 PC-3 cells (1:1 in PBS:Matrigel). Tumor growth was monitored, and once size was approx. 200 - 500 mm^3, mice were injected intravenously via tail vein with 230 pmol of [^111In]In-BCY18469 (5.3 ± 0.2 MBq). Mice were imaged under isoflurane anesthesia using whole-body static SPECT followed by a CT at each timepoint (30 min SPECT scan time starting at 1h and 24h p.i.). Reconstructed images were generated in units of activity. Namely, the values assigned to the voxels (volume elements) comprising the 3D reconstructed SPECT images were in units of MBq or equivalent. Reconstructed images were processed with VivoQuant (Invicro). Whole body maximum intensity projection (MIP) images were generated using VivoQuant.

PC-3 tumor xenograft = assay: in vivo; conditions: male, athymic nude, mouse
Description: as §2

[5] = 4°C, block with 10 µM non-labeled compound
[6] = total radioactivity, Liver uptake

CC(C)C[C@@H]1NC(=O)[C@@H]2CSCCC(=O)N3CN(CN(C3)C(=O)CCSC[C@H](NC(=O)[C@H](CC(=O)O)NC(=O)[C@H](CCCCNC(=N)N)NC(=O)[C@H](C)NC(=O)CN(C)C(=O)CN(C)C(=O)CN(C)C(=O)CN(C)C(=O)CN(C)C(=O)CN(C)C(=O)CN(C)C(=O)CN(C)C(=O)CN(C)C(=O)CN(C)C(=O)CCNC(=O)CN3CCN(CC(=O)O)CCN(CC(=O)O)CCN(CC(=O)O)CC3)C(=O)N3C[C@H](O)C[C@H]3C(=O)N[C@@H](CC3CCC3)C(=O)N[C@@H](C(C)C)C(=O)N[C@@H](CC(N)=O)C(=O)N3CCC[C@H]3C(=O)N[C@@H](CC(C)C)C(=O)N2)C(=O)CCSC[C@@H](C(N)=O)NC(=O)[C@H](CCCCNC(=N)N)NC(=O)[C@H](Cc2c[nH]c3ccccc23)NC(=O)[C@@H](CC(=O)O)NC(=O)[C@@H]2CCCN2C(=O)[C@H](Cc2c[nH]cn2)NC1=O [[68Ga]Ga-BCY18469, metal not drawn] ({DOTA-βAla}-[Sar][Sar][Sar][Sar][Sar][Sar][Sar][Sar][Sar][Sar]A[hArg]DC[Hyp][Cba]VNPLCLHP[dD]W[hArg]C-NH2; linker 14-21-28 via TATA)
fraction unbound at 15 min (in vitro [1]): ~0.5 | uptake in the tumor (MCF-7 tumor xenograft): no uptake | remaining at 72 h (in vitro [2]; human): 94% | remaining at 72 h (in vitro [2]; mouse): 40% | Cell Surface B 4°C (HT1080 cells; [5]): 0.03 ± 0.01 %AA/10^5 cells | Internalization B 4°C (HT1080 cells; [5]): 0.01 ± 0.00 %AA/10^5 cells | Cell Surface 4°C (HT1080 cells; 4°C): 0.47 ± 0.01 %AA/10^5 cells | Internalization 4°C (HT1080 cells; 4°C): 0.05 ± 0.01 %AA/10^5 cells | Cell Surface (HT1080 cells; 37°C, 45 min, 30 nM): 0.53 ± 0.03 %AA/10^5 cells | Internalization (HT1080 cells; 37°C, 45 min, 30 nM): 0.18 ± 0.05 %AA/10^5 cells | Internalization B (HT1080 cells; 37°C, block with 10 µM non-labeled compound): 0.06 ± 0.00 %AA/10^5 cells | SUV (in vivo [3]; Bladder uptake): 0.41 SUV | SUV (in vivo [3]; Kidneys uptake): 3.15 SUV | SUV (in vivo [3]; Liver uptake): 1.13 SUV | SUV at 1 h (in vivo [3]; Tumor SUVbw): 1.7 SUV | SUV at 2 h (in vivo [3]; Tumor SUVbw): 1.2 SUV | SUV (in vivo [3]; Tumor uptake): 0.67 SUV

CC(C)C[C@@H]1NC(=O)[C@@H]2CSCCC(=O)N3CN(CN(C3)C(=O)CCSC[C@H](NC(=O)[C@H](CC(=O)O)NC(=O)[C@H](CCCCNC(=N)N)NC(=O)[C@H](C)NC(=O)CN(C)C(=O)CN(C)C(=O)CN(C)C(=O)CN(C)C(=O)CN(C)C(=O)CN(C)C(=O)CN(C)C(=O)CN(C)C(=O)CN(C)C(=O)CN(C)C(=O)CCNC(=O)CN3CCN(CC(=O)O)CCN(CC(=O)O)CCN(CC(=O)O)CC3)C(=O)N3C[C@H](O)C[C@H]3C(=O)N[C@@H](CC3CCC3)C(=O)N[C@@H](C(C)C)C(=O)N[C@@H](CC(N)=O)C(=O)N3CCC[C@H]3C(=O)N[C@@H](CC(C)C)C(=O)N2)C(=O)CCSC[C@@H](C(N)=O)NC(=O)[C@H](CCCCNC(=N)N)NC(=O)[C@H](Cc2c[nH]c3ccccc23)NC(=O)[C@@H](CC(=O)O)NC(=O)[C@@H]2CCCN2C(=O)[C@H](Cc2c[nH]cn2)NC1=O [[111In]In-BCY18469, metal not drawn] ({DOTA-βAla}-[Sar][Sar][Sar][Sar][Sar][Sar][Sar][Sar][Sar][Sar]A[hArg]DC[Hyp][Cba]VNPLCLHP[dD]W[hArg]C-NH2; linker 14-21-28 via TATA)
tissue uptake at 1 h (in vivo [4]; Bladder uptake): 207 %ID/g | tissue uptake at 24 h (in vivo [4]; Bladder uptake): 4.2 %ID/g | tissue uptake at 1 h (in vivo [4]; Heart uptake): 0.03 %ID/g | tissue uptake at 24 h (in vivo [4]; Heart uptake): 0.03 %ID/g | tissue uptake at 1 h (in vivo [4]; Kidneys uptake): 32 %ID/g | tissue uptake at 24 h (in vivo [4]; Kidneys uptake): 17 %ID/g | tissue uptake at 24 h (in vivo [4]; Lungs uptake): 0.01 %ID/g | tissue uptake at 1 h (in vivo [4]; Muscle uptake): 0.27 %ID/g | tissue uptake at 24 h (in vivo [4]; Muscle uptake): 0.02 %ID/g | tissue uptake at 1 h (in vivo [4]; Spleen uptake): 0.27 %ID/g | tissue uptake at 24 h (in vivo [4]; Spleen uptake): 0.4 %ID/g | tissue uptake at 1 h (in vivo [4]; Tail uptake): 0.28 %ID/g | tissue uptake at 24 h (in vivo [4]; Tail uptake): 0.07 %ID/g | tissue uptake at 24 h (in vivo [4]; Tumor uptake): 2.3 %ID/g | tissue uptake at 1 h (in vivo [4]; [6]): 0.13 %ID/g | tissue uptake at 24 h (in vivo [4]; [6]): 0.05 %ID/g | tissue uptake at 1 h (in vivo [4]; total radioactivity, Lungs uptake): 0.12 %ID/g | tissue uptake (in vivo [4]; total radioactivity, Non-target organs uptake): ≤ 1 %ID/g | tissue uptake at 1 h (in vivo [4]; total radioactivity, Tumor uptake): 5.7 ± 1.5 %ID/g | Kidneys uptake (PC-3 tumor xenograft; 1 h): 31.9 ± 3.4 %ID/g | Tumor uptake (PC-3 tumor xenograft; 1 h): 5.72 ± 1.47 %ID/g | Tumor uptake (PC-3 tumor xenograft; 24 h): 2.32 ± 0.50 %ID/g
